The record followed here is paper doi:10.1101/2022.04.07.487468.

Where two headings read alike, the source gives them in different places.

In assay [1] the target is memGFP (zebrafish | not stated). Put plainly: fluorescence cross-correlation spectroscopy.
The target in assay [2] is Ror2-mCherry (not stated (xRor2 or zebrafish Ror2 cDNA cloned)). Put plainly: fluorescence cross-correlation spectroscopy.
Assay [3] concerns the target mCherry-xRor2 (not stated (prefix x in xRor2; Xenopus from memory)). Put plainly: FRET or BRET.
Assay [4] concerns the target Ror2-mCherry (not stated (xRor2 or zebrafish Ror2 cDNA cloned)). Put plainly: fluorescence cross-correlation spectroscopy. This is another data set of the same source.
In assay [5] the target is zfRor2-ΔCRD-mCherry (zebrafish). Description: fluorescence cross-correlation spectroscopy.
Assay [6] concerns the target Ror2-mCherry (not stated (xRor2 or zebrafish Ror2 cDNA cloned)). Description: fluorescence cross-correlation spectroscopy. This is another data set of the same source.

cytosolic mCherry: the Kd in assay [1] is > 9300 nM.

B1: zfWnt5b-GFP (ligand)
chain: QLLVVANSWWSLAMNPIQRPEMYIIGAQPLCSQLTGLSQGQRKLCQLYQDHMVYIGEGAKTGIKECQYQFRQRRWNCSTVDNTSVFGRVMHIGSRETAFTYAVSAAGVVNAVSRACREGELSTCGCSRAARPRDLPRDWLWGGCGDNVNYGYRFAREFVDAREREKNYPRGSVEHARTLMNLQNNEAGRMAVYNLANVACKCHGVSGSCSLKTCWLQLADFRRVGEFLKEKYDSAAAMRINRRGKLELVNNRFNPPTGEDLVYIDPSPDYCLRNETTGSLGTQGRLCNKTSEGMDGCELMCCGRGYDQFKTYKHERCHCKFHWCCYVKCKRCTSLVDQFVCK
With B1, the Kd is 3560 nM in assay [2], 311 to 476 nM in assay [4], > 6680 nM in assay [5] and 450 nM in assay [6]. In assay [3], this molecule returned an FRET efficiency of 11.3 to 13%.
